Assays:
[1] = target: recombinant human B7H3 extra cellular domain (ECD) protein (human) (UniProt Q5ZPR3); experiment: Octet binding assay
[2] = target: human B7H3 on A498 cells (human) (UniProt Q5ZPR3); experiment: flow cytometry, whole cell binding to B7H3+ A498 cells, MFI
[3] = target: human B7H3 on A498 cells (human) (UniProt Q5ZPR3); experiment: as above; remark: listed apart in the source
[4] = target: human B7H3 on A498 cells (human) (UniProt Q5ZPR3); experiment: flow cytometry, whole cell binding to B7H3+ A498 cells, MFI (FITC)

Sequence of recombinant human B7H3 extra cellular domain (ECD) protein (human) (Q5ZPR3 29-461): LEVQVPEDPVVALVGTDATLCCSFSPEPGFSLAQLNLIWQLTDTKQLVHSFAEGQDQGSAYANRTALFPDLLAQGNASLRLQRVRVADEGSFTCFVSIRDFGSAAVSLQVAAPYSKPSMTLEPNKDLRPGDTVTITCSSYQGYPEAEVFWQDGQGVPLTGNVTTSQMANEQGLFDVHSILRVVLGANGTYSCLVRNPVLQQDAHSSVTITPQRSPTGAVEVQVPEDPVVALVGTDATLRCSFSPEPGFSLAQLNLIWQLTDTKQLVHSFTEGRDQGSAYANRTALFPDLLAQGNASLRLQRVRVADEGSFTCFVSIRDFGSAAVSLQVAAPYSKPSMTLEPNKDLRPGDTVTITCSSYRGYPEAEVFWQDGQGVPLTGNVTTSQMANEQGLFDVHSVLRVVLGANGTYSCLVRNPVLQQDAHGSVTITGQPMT
Sequence of human B7H3 on A498 cells (human) (Q5ZPR3 29-534 limits assumed): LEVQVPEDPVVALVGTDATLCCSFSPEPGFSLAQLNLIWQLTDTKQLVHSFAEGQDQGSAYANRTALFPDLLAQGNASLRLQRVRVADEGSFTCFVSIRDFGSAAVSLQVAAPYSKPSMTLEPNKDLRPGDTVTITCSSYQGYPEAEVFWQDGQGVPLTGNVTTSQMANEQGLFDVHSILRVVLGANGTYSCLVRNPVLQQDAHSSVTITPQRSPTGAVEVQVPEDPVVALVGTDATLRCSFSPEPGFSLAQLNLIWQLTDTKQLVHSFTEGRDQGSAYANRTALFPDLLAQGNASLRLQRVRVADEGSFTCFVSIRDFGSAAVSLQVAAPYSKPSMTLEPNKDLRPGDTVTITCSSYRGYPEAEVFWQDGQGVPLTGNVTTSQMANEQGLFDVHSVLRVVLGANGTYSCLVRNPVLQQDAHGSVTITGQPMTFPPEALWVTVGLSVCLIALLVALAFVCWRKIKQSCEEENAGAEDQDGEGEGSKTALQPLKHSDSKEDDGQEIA

Kd [1]: 0.739 nM | koff [1]: 0.000199 s⁻¹ | kon [1]: 269000 M⁻¹ s⁻¹ | EC50 [2]: 7.94 nM | EC50 [3]: 2.18 nM | EC50 [4]: 0.697 nM
Substance: Reference Ab 1 (an enoblituzumab analog) (antibody)

Source: patent US20250243278A1
